Here are results for two molecules from US20060052296A1 (TEMPLE UNIVERSITY OF THE COMMONWEALTH SYSTEM OF HIGHER …, published 2006).

For experiment [1], the target named is T1, GST alone (UniProt P08515 1-218 = GST). Kind of experiment: GST pull-down from NIH 3T3 cell extract, Western blot with anti-agnoprotein antibody. A general note: Immunoblotting shows a protein as a band on a membrane.
In experiment [2] the target is p53 in NIH 3T3 cell protein extract (mouse (endogenous in mouse fibroblast …, UniProt P02340 1-390)). Kind of experiment: co-immunoprecipitation with anti-p53 antibody pAb 421, Western blot with rabbit anti-Agno.
Sequence of p53 in NIH 3T3 cell protein extract (mouse (P02340 whole entry): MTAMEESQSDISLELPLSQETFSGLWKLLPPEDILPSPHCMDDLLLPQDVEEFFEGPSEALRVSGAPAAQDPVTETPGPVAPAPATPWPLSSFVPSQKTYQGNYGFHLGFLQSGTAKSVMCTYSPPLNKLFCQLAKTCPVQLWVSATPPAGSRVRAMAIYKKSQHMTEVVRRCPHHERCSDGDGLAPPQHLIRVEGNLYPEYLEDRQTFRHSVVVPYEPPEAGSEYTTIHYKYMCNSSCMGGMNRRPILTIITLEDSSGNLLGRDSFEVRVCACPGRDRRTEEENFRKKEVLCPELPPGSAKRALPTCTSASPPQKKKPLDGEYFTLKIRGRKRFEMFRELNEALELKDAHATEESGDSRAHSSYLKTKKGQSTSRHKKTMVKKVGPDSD
The target of experiment [3] is T1, GST alone. Kind of experiment: GST pull-down, autoradiography.

T1 sequence (P08515 whole entry): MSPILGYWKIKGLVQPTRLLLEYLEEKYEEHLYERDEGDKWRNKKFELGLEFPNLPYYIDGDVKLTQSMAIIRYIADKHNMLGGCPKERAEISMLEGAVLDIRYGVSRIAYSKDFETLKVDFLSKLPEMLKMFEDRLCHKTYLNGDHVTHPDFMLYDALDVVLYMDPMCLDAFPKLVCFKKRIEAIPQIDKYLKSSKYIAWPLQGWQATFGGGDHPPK

B1: YFP-agnoprotein (other)
chain: MVLRQLSRKASVKVSKTWSGTKKRAQRILIFLLEFLLDFCTGEDSVDGKKRQRHSGLTEQTYSALPEPKAT
notes: also called GFP-Agnoprotein; fusion agnoprotein
On to B1, for which the binding result is “no binding” with GST alone [1] and “binds” in experiment [2].

B2: in vitro synthesized [35S]-labeled agnoprotein (other)
chain: B1 chain
notes: also called in vitro translated [35S]-labeled agnoprotein
In the case of B2, in the experiment with GST alone [3], the binding result is “no binding”.
